Measurements: paper PMC10157173 (Frontiers in Immunology, 2023)

B1: patritumab (antibody, V domains shown)
VH: QVQLQQWGAGLLKPSETLSLTCAVYGGSFSGYYWSWIRQPPGKGLEWIGEINHSGSTNYNPSLKSRVTISVETSKNQFSLKLSSVTAADTAVYYCARDKWTWYFDLWGRGTLVTVSS
VL: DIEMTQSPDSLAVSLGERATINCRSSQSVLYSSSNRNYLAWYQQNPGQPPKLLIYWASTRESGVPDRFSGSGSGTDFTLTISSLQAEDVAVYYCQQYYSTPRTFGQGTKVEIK
notes: heavy chain of patritumab; light chain of patritumab; also called 3Patri; anti-HER3 mAb; source: cloning, production and purification of mAbs at Icosagen; copies: 2 + 2
B2: elgemtumab (antibody, V domains shown)
VH: EVQLLESGGGLVQPGGSLRLSCAASGFTFSSYAMSWVRQAPGKGLEWVSAINSQGKSTYYADSVKGRFTISRDNSKNTLYLQMNSLRAEDTAVYYCARWGDEGFDIWGQGTLVTVSS
VL: DIQMTQSPSSLSASVGDRVTITCRASQGISNWLAWYQQKPGKAPKLLIYGASSLQSGVPSRFSGSGSGTDFTLTISSLQPEDFATYYCQQYSSFPTTFGQGTKVEIK
notes: heavy chain of elgemtumab; light chain of elgemtumab; also called 3Elgem; anti-HER3 mAb; source: cloning, production and purification of mAbs at Icosagen; copies: 2 + 2
B3: matuzumab (antibody, V domains shown)
VH: QVQLVQSGAEVKKPGASVKVSCKASGYTFTSHWMHWVRQAPGQGLEWIGEFNPSNGRTNYNEKFKSKATMTVDTSTNTAYMELSSLRSEDTAVYYCASRDYDYDGRYFDYWGQGTLVTVSS
VL: DIQMTQSPSSLSASVGDRVTITCSASSSVTYMYWYQQKPGKAPKLLIYDTSNLASGVPSRFSGSGSGTDYTFTISSLQPEDIATYYCQQWSSHIFTFGQGTKVEIK
notes: heavy chain of matuzumab; light chain of matuzumab; also called 1Matu; anti-EGFR mAb; source: cloning, production and purification of mAbs at Icosagen; matuzumab also donated by Merck AG; copies: 2 + 2

Assays:
[1] = target: T1, His-tagged recombinant human HER3 ECD (Homo sapiens (Human)., UniProt P21860); experiment: ELISA; direct ELISA: His-tagged EGFR, HER2 or HER3 coated at 800 ng/ml in PBS on Maxisorp plates; two-fold or ten-fold dilutions of BiXAb™ or 1MAbs in PBS, 37°C, 1 h; detected with peroxidase-conjugated anti-human Fc; settings: both partners purified
T1 construct: human HER3, extracellular domain (ECD); see the supplier's catalogue entry; also called HER3-His; source: bought: Sino Biological Inc (#10201-H08H)

[2] = target: T2, His-tagged recombinant human EGFR ECD (Homo sapiens (Human)., UniProt P00533); experiment: as above; settings: both partners purified
T2 construct: human EGFR, extracellular domain (ECD); see the supplier's catalogue entry; also called EGFR-His; source: bought: Sino Biological Inc (#10001-H08H)

Binder | binding result [1] | binding result [2]
B1 | binds | –
B2 | binds | –
B3 | – | binds
